Data reported in US20260098095A1 (Hoffmann-La Roche, published 2026).

Assays:
[1] = target: T1, HLA-A2/MAGE-A4 peptide MHC (pMHC) complex on cells (human); assay: cell-based or functional assay
[2] = target: T1, HLA-A2/MAGE-A4 peptide MHC (pMHC) …; assay: cell-based or functional assay; remark: listed apart in the source
[3] = target: T2, HLA-A2/MAGE-A4p230-239 complex (human); assay: SPR Biacore T200, antibody captured by anti-human Fc, pMHC complex as analyte, 25 C, 1:1 Langmuir fit
T2 construct: also called HLA-A2/MAGEp230-239
Protocol: The dissociation phase was monitored for 240 s and triggered by switching from the sample solution to HBS-EP+. The chip surface was regenerated after every cycle using an injection of 3M MgCl₂ at 10 μl/min for 30 sec. Bulk refractive index differences were corrected for by subtracting the response obtained on the reference flow cell which contains the anti-human Fc antibody, but without HLA-A2/MAGE-A4 antibody captured on it. The affinity constants were derived from the kinetic rate constants by fitting to a 1:1 Langmuir binding using the BIAeval software (GE Healthcare). The measurement was performed in triplicate with independent dilution series.

B1: Molecule R (bispecific antibody, human IgG1, kappa, L234A L235A)
heavy 1: not shown
heavy 2: AQLVESGGGLVQPGGSLRLSCAASAYFSFKAMSWVRQAPGKGLEWVGSISPSGGSTYYNDNVLGRFTISRDNSKNTLYLQMNSLRAEDTAVYYCAKDVGFFDEWGQGTLVTVSSASTKGPSVFPLAPSSKSTSGGTAALGCLVEDYFPEPVTVSWNSGALTSGVHTFPAVLQSSGLYSLSSVVTVPSSSLGTQTYICNVNHKPSNTKVDEKVEPKSCDKTHTCPPCPAPEAAGGPSVFLFPPKPKDTLMISRTPEVTCVVVDVSHEDPEVKFNWYVDGVEVHNAKTKPREEQYNSTYRVVSVLTVLHQDWLNGKEYKCKVSNKALGAPIEKTISKAKGQPREPQVCTLPPSRDELTKNQVSLSCAVKGFYPSDIAVEWESNGQPENNYKTTPPVLDSDGSFFLVSKLTVDKSRWQQGNVFSCSVMHEALHNHYTQKSLSLSP
light 1: DIQMTQSPSSLSASVGDRVTITCRASQSISSYLAWYQQKPGKAPKLLIYDASIRDIGVPSRFSGSGSGTDFTLTISSLQPEDFATYYCQQYSSYPYTFGQGTKLEIKRTVAAPSVFIFPPSDRKLKSGTASVVCLLNNFYPREAKVQWKVDNALQSGNSQESVTEQDSKDSTYSLSSTLTLSKADYEKHKVYACEVTHQGLSSPVTKSFNRGEC
light 2: EVQLVESGGGLVQPGGSLRLSCAASGYSFTGYTMNWVRQAPGKGLEWVALINPYKGVSTYNQKFKDRFTISVDKSKNTAYLQMNSLRAEDTAVYYCARSGYYGDSDWYFDVWGQGTLVTVSSASVAAPSVFIFPPSDEQLKSGTASVVCLLNNFYPREAKVQWKVDNALQSGNSQESVTEQDSKDSTYSLSSTLTLSKADYEKHKVYACEVTHQGLSSPVTKSFNRGEC
- EC50 [pM], T-cell mediated lysis of A375 HLA-A2 overexpressing cells, 24 h [1]: 0.08 pM
- EC50 [pM], T-cell mediated lysis of A375 cells, 24 h [1]: 0.6 pM
- EC50 (nM), T-cell mediated lysis of A375 cells, 48 h [2]: 1.47 nM
- EC50 (nM), T-cell mediated lysis of NCI-H2023 cells, 48 h [2]: 1.06 nM
- EC50 (nM), T-cell mediated lysis of UMUC-3 cells, 48 h [2]: 0.57 nM
- Kd [3]: 13.1 nM
- koff [3]: 0.0436 s⁻¹
- kon [3]: 3.33e+06 M⁻¹ s⁻¹
